The source of these data is patent CN110642952A (SHANGHAI INST OF BIOLOGICAL PRODUCTS CO LTD, dated 2020).

Residue numbers refer to the chain shown, from its start.

To fix the notation:
B1: HER3鼠源单克隆抗体927 (antibody, V domains shown)
VH: EVQLQQSGPELVKPGASVKISCKASGYSFTSYYIHWVKQRPGQGLEWIGWIFPRSGHTNYNEKFKGKATLTADTSSSTAYMQVSSLTSEDSAVYFCARSRDYYGTNAMDYWGQGTSVTVSS
VL: DIVMTQSPSSLTVTAGEKVTMSCKSSQSLFNSGNQKNYLTWYQQKPGQPPKLLIYWASTRESGVPDRFTGSGSGTDFTLTISSVQAEDLAVYYCQNDYSYPYTFGGGTKLEIKR
notes: Mouse monoclonal antibody from hybridoma ascites, purified on protein G; also called HER3抗体927
B2: HER3鼠源单克隆抗体1050 (antibody, V domains shown)
VH: B1 VH with E1Q, R54G, N59K, Y60C, K63N, G66A, V83L, T105S, M108V
VL: B1 VL with F30L, T69S
notes: Mouse monoclonal antibody from hybridoma ascites, purified on protein G; also called HER3抗体1050
B3: HER3鼠源单克隆抗体993 (antibody, V domains shown)
VH: EVKLVESGGGLVKPGGSLKLSCAASGFTFSSYSLSWVRQTPEKRLEWVASITFGGTAYYSDSVKGRFTISRDNARNILYLQMSSLKSEDTAMYYCVRGDGYEDPMDYWGQGTSVTVSS
VL: DIVMTQTTVSLAVSLGQRATISCRASESVDSYGKSFMHWYQQKPGQPPKLLIYRASNLESGIPARFSGSGSRTDFTLTINPVEADDVSTYYCQQSNEDPYTFGGGTKLEIR
notes: Mouse monoclonal antibody from hybridoma ascites, purified on protein G; also called HER3抗体993
B4: HER3鼠源单克隆抗体1044 (antibody, V domains shown)
VH: EVQLQQSGTELMKPGASVKISCKATGGTFSNYWIDWVKQRPGHGLEWIGEILPGSGGTDYNEKFKGKATFTADTSSNTAYMQLSSLTSEDSAVYYCARDDYDVFAYWGQGTLVTVSS
VL: DIVMTQAAFSNPVTLGTSASISCRSSKSLLHSNGITYLYWYLQKPGQSPQLLIYQMSNLASGVPDRFSSSGSGTDFTLRISRVEAEDVGVYYCAQNLELPWTFGGGTKLEIKR
notes: Mouse monoclonal antibody from hybridoma ascites, purified on protein G; also called HER3抗体1044

The target of one test is T1, HER3 (human, UniProt P21860 20-643, limits assumed).
T1 construct: also called HER3抗原; HER3蛋白
T1 sequence (P21860 20-643 limits assumed): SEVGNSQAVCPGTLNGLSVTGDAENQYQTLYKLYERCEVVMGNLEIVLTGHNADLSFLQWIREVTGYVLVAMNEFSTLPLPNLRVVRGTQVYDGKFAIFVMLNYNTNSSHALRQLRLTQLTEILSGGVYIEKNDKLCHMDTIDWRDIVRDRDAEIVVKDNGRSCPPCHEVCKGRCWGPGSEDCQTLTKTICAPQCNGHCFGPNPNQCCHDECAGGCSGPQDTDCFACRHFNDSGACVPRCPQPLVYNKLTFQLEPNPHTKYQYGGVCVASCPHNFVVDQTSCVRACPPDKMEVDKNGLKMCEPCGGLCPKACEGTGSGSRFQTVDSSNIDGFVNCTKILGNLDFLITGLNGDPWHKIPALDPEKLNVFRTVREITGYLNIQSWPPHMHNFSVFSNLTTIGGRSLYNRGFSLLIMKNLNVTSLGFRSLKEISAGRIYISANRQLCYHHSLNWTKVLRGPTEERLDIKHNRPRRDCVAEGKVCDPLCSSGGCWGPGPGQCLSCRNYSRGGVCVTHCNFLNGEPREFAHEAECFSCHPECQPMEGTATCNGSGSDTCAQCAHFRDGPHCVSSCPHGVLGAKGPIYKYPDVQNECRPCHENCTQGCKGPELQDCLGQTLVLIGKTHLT
The test is described as follows: ProteOn XPR36 Protein Interaction Array System (SPR).
B1 displayed a Kd of 4.13 nM.
In turn, B2 showed a Kd of 5.83 nM.
On the same count and under the same terms, then B3, with 0.166 nM.
In the case of B4, binding was put at a Kd of 0.525 nM.

For a further test, the target named is T2, HER3-ECD融合蛋白 (human).
T2 construct: also called HER3-ECD fusion protein
The test is described as follows: competition ELISA: Trx-HRG coated (10 μg/ml), HER3-ECD fusion protein 1 μg/ml pre-incubated with antibody, anti-hGH detection.
Regarding B1, the half-inhibitory concentration (IC50) was found to be 1.5 nM. This counts as single-digit nanomolar.
The same measure, in the same setting: for B2 the value was 2.8 nM.
On the same count and under the same terms, for B3 the value was 0.3 nM; for B4, 2.3 nM.
